The target of experiment [1] is T1, biotinylated human CD40-mouse Fc (Ancell #504-030) (human, UniProt P25942 21-193, biotinylated).
T1 construct: Bought fusion protein; also called hCD40-muIg; CD40mFc-biotin; not shown: mouse Ig Fc of the bought fusion protein
As to the kind of experiment: dual target ELISA: CEACAM5 coated, biotinylated hCD40-muIg detection. Here is the method:
ELISA plates were coated with human EpCAM, bsAb was added followed by detection using goat anti human-kappa light chain-HRP.
(§1) 96-well plates were coated with 0.5 μg/mL antigen, hCEACAM-1 (2244-CM-050, R&D Systems), hCEACAM-5 (4128-CM-050, R&D Systems), hCEACAM-6 (3934-CM-050, R&D Systems) or CEACAM-8 (9639-CM-050, R&D Systems) in PBS over night at 4° C. After washing in PBS/0.05% Tween 20 (PBST), the plates were blocked with PBST, 2% BSA for at least 30 minutes at room temperature before a second round of washing. RUBY bsAbs, diluted in PBST, 0.5% BSA, were then added and allowed to bind for at least 1 hour at room temperature. […] Finally, a final round of washing was performed and bound complexes detected using SuperSignal Pico Luminescent as substrate and luminescence signals were measured using Fluostar Optima.
(In an ELISA, binding on a coated surface is turned into a signal by an enzyme label.)

Experiment [2] deals with T2, CEACAM8, recombinant soluble (CEACAM-8, R&D Systems #9639-CM-050) (UniProt P31997 35-320, limits assumed).
T2 sequence (looked up): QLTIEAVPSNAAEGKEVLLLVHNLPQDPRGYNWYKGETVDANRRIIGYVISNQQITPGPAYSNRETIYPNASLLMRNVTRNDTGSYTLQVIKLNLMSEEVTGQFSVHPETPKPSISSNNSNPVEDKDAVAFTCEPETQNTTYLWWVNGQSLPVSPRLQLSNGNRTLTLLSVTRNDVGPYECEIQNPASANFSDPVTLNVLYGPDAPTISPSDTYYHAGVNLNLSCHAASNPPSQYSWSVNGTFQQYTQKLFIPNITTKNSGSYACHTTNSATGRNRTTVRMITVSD
As to the kind of experiment: ELISA, coated CEACAM family protein. Here is the method:
as §1

For experiment [3], the target named is T3, human CEACAM1, recombinant soluble (hCEACAM-1, R&D Systems #2244-CM-050) (human, UniProt P13688 35-428).
T3 sequence (looked up): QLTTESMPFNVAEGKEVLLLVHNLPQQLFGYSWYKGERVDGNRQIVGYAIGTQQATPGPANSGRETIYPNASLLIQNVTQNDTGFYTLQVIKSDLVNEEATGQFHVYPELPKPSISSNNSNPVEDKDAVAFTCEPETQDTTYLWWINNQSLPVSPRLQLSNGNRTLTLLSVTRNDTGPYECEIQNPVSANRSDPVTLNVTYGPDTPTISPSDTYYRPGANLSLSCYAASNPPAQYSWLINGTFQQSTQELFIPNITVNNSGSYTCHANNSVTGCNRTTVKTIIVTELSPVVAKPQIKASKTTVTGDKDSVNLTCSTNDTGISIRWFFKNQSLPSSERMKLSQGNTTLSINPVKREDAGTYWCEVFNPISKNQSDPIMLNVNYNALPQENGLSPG
As to the kind of experiment: ELISA, coated CEACAM family protein. Here is the method:
as §1

Experiment [4] deals with T4, human CEACAM6, recombinant soluble (hCEACAM-6, R&D Systems #3934-CM-050) (human, UniProt P40199 35-320).
T4 sequence (looked up): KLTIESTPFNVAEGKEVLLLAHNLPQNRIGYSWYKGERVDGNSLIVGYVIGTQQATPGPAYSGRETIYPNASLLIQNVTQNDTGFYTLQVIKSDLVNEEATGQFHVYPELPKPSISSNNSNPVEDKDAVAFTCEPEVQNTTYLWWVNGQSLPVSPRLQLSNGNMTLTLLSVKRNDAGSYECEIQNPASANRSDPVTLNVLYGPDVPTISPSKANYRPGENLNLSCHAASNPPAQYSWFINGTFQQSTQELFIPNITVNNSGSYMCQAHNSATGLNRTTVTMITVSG
As to the kind of experiment: ELISA, coated CEACAM family protein. Here is the method:
as §1

The record followed here is patent US20240117074A1 (published 2024).

T1 sequence (P25942 21-193): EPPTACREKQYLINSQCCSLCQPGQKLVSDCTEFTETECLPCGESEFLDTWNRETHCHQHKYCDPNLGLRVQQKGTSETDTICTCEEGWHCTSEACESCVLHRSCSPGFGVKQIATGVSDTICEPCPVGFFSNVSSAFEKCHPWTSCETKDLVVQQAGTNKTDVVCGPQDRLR

B1: Multi48 (bispecific antibody)
heavy 1: not shown
light: DIQMTQSPSSLSASVGDRVTITCRASQSISSYLNWYQEKPGKAPKLLIYAASSLQSGVPSRFSGSGSGTDFTLTISSLQPEDFATYYCQQYGRNPPTFGQGTKLEIKRTVAAPSVFIFPPSDEQLKSGTASVVCYLNNFYPREAKVQWKVDNALQSGNSQESVTEQDSKDSTYSLWSTLTLSKADYEKHKVYACEVTHQGLSSPVTKSFNRGEC
heavy 2: EVQLLESGGGLVQPGGSLRLSCAASGFTFGDHAMSWVREAPGKGLEWVSAISGYGHSTGYADSVKGRFTISRDNSKNTLYLQMNSLRAEDTAVYYCARNHYRVGLDYWGQGTLVTVSSASTKGPSVFPLAPSSKSTSGGTAALGCLVKDYFPEPVTVSWNSGALTSGVHTFPAVLQSSGLYSLTSVVEVPSSSLGTQTYICNVNHKPSNTKVDKKVEPKSC
notes: copies: 2 + 2 + 2
For B1, the binding result in experiment [1] is “binds”; in experiment [2], “no binding”; in experiment [3], “no binding”; in experiment [4] it was “no binding”.
